Data published in US8492329B2, “Bioactive peptides and methods of using same” (Compugen Ltd., priority 2007, dated 2013).
No end group written: not given here.

Key:
[1] = target: T1, LGR8 (RXFP2) (Homo sapiens, UniProt Q8WXD0); experiment: pCRE-β-gal reporter assay in HEK-293T cells expressing LGR8; format: cell-based; design: expressed in transfected cells; details: LGR8/pCRE-β-gal HEK-293T; for CRE activation pattern: 0.01 nM-1 μM, FIG. 6A-B
Method: In order to further test the activity of P59C13V (P59) (SEQ ID NO: 6), P59S-Amide (P59S) (SEQ ID NO: 1), P59C13V-Amide (P59 Amide) (SEQ ID NO: 5) and P74C13V (P74) (SEQ ID NO: 10), the following assay was performed. The assay was done to assess the ability of P59C13V (P59) (SEQ ID NO: 6), P59S-Amide (P59S) (SEQ ID NO: 1), P59C13V-Amide (P59Amide) (SEQ ID NO: 5) and P74C13V (P74) (SEQ ID NO: 10) peptides to replace H2 Relaxin or INSL3 activity in stable HEK-293T cell lines expressing the LGR7 (RXFP1) or the LGR8 (RXFP2) receptors, respectively, by assessment of the ability of these peptides to increase cAMP activity in cell lines expressing LGR7 (RXFP1) or LGR8 (RXFP2) respectively, together with pCRE-β-gal. The pCRE-β-gal assay is a standard and well established assay at the Howard Florey Institute (Melbourne, Australia) (Halls M L, Bathgate R A, Summers R J.—Comparison of signaling pathways activated by the relaxin family peptide receptors, RXFP1 and RXFP2, using reporter genes. J Pharmacol Exp Ther. 2007 January; 320(1):281-90.)
The ability of P59C13V (P59) (SEQ ID NO: 6), P59S-Amide (P59S) (SEQ ID NO: 1), P59C13V-Amide (P59Amide) (SEQ ID NO: 5) and P74C13V (P74) (SEQ ID NO: 10) to influence cAMP activity in HEK-293T LGR7/pCRE-β-gal stable or LGR8/pCRE-β-gal transfected cells was tested in parallel to H2 relaxin and INSL3 respectively, according to the protocol described in Halls M L, et al., J Pharmacol Exp Ther. 2007 January; 320(1):281-90.
The experiment was repeated at least three times. The following concentrations of each peptide were tested: 0.01 nM, 0.1 nM, 1 nM, 10 nM, 100 nM, 1 μM.
The results are presented as a percentage of INSL3 activity in LGR8/pCRE-β-gal transfected HEK-293T cells as a function of the concentration (Represented in Log [M]).

[2] = target: T1, LGR8 (RXFP2); experiment: pCRE-β-gal reporter assay in Forskolin-treated CHO-K1 cells transiently transfected with LGR8; format: cell-based; design: expressed in transfected cells; host or cells: CHO-K1 (transient); details: 5 uM Forskolin, FIG. 8A-B
Method: The ability of P74C13V (P74) (SEQ ID NO: 10) and P59C13V (P59) and P59C13V-Amide (P59-Amide) (SEQ ID NO: 6 and 5 respectively) to activate LGR7 (RXFP1) and LGR8 (RXFP2) was further tested by testing the ability of these peptides to influence cAMP activity induced by 5 μM Forskolin in CHO-K1 cells transiently transfected with LGR7/pCRE-β-gal or LGR8/pCRE-β-gal as compared to H2 relaxin and INSL3 respectively.
LGR8 transfected CHO-K1 cells were treated with 5 uM of Forskolin to stimulate cAMP. The cells were then challenged with increasing doses of INSL3 (as positive control), P74C13V (P74) (SEQ ID NO: 10), P59C13V with (P59-Amide) and without (P59) amide (SEQ ID NO: 5 and 6, respectively) and P59S-Amide (P59-S) (SEQ ID NO: 1). […] The results are presented as a percentage of Forskolin activity at various concentrations of the peptide (logarithmic scale). Each point represents three unrelated repeats for each experiment.

T1 sequence (Q8WXD0 whole entry): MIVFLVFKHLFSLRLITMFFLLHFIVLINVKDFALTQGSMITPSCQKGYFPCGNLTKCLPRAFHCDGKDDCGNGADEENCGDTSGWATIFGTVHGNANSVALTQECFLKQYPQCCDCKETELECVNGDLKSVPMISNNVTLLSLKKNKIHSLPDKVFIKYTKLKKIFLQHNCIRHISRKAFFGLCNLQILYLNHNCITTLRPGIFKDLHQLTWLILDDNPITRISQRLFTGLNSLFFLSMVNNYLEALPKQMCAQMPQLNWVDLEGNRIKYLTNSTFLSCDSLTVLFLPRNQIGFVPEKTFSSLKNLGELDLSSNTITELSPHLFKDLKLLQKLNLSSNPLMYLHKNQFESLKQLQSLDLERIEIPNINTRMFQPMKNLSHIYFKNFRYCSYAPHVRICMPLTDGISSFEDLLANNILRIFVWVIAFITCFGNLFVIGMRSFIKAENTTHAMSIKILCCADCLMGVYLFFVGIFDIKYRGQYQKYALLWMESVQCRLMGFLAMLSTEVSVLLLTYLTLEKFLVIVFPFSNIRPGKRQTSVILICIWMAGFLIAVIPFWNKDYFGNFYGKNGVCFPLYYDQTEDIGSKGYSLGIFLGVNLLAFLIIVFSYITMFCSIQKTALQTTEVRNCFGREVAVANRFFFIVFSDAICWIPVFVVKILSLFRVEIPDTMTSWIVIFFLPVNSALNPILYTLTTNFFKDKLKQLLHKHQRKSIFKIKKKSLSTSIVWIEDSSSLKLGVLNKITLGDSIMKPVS

Substance | CRE activation pattern [1] | CRE activation relative to INSL3 activity ([1]; FIG. 6B) | CRE activation pattern relative to Forskolin [2]
AYAAFSV-Amide (AYAAFSV-NH2) [Peptide P59-S-Amide] | less pronounced | – | –
GQKGQVGPPGAAVRRAYAAFSV [Peptide P59C13V] | – | ~25 % of INSL3 | dual activation pattern effect
GQKGQVGPPGAAVRRAYAAFSV-Amide (GQKGQVGPPGAAVRRAYAAFSV-NH2) [P59C13V-Amide] | very weak effect | – | slight activation pattern
GQKGQVGPPGAAVRRAYAAFSVGRRAYAAFSV-OH [Peptide P74C13V] | bell shaped response | – | bell-shaped activation pattern
